Substitutions are numbered along the chain they refer to. Read-outs that look alike come from different tables or passages of the source. One block for each binder: values may come before it.
Assays:
[1] = biological target: T1, human CLEC12A on cells (HL60, PL21, Ba/F3-hCLEC12A) (human, UniProt Q5QGZ9 1-265); assay: flow cytometry, PL21 cells
T1 construct: Endogenous on the AML lines HL60 and PL21; brought into mouse Ba/F3 cells by retroviral transduction; The cell line stands under assay; also called CLL-1
T1 sequence: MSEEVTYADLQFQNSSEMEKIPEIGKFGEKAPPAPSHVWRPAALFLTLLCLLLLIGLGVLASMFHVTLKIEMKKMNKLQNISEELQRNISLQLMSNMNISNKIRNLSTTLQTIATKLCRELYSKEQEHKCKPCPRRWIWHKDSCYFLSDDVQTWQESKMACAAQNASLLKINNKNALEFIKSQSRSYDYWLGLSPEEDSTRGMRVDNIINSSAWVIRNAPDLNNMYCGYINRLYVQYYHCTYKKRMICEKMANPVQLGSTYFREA

[2] = biological target: T1, human CLEC12A on cells (HL60, PL21, …); assay: flow cytometry, HL60 cells
[3] = biological target: T1, human CLEC12A on cells (HL60, PL21, …); assay: flow cytometry, Ba/F3-hCLEC12A cells
[4] = biological target: T2, recombinant human CLEC12A-His (human, UniProt Q5QGZ9 65-265); assay: SPR screening, semi-purified
T2 construct: also called hCLEC12A-His; hCLEC12A
T2 sequence: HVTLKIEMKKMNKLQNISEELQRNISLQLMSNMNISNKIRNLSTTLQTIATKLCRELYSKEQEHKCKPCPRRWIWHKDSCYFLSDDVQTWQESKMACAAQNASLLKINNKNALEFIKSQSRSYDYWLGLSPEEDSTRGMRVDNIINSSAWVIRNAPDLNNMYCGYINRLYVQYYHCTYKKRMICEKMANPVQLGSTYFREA

[5] = biological target: T2, recombinant human CLEC12A-His; assay: SPR screening, semi-purified; remark: listed apart in the source

EC50 [1]: 0.55 nM | FOB (fold over background) [1]: 10 fold | EC50 [2]: 1.33 nM | FOB (fold over background) [2]: 31 fold | EC50 [3]: 2.87 nM | FOB (fold over background) [3]: 318 fold
B1: hcFAE-A49.h6E7 (Duobody TriNKET) (bispecific antibody, V domains shown)
VH 1: EVQLVQSGAEVKKPGASVKVSCKASGYSFTDYYMHWVRQAPGQGLEWIGRINPYNGAAFYSQNFKDRVTLTVDTSTSTAYLELSSLRSEDTAVYYCAIERGADLEGYAMDYWGQGTLVTVSS
VL 1: DIQMTQSPSSLSASVGDRVTITCRASQSVSTSSYNYMHWYQQKPGKPPKLLIKYASNLESGVPSRFSGSGSGTDFTLTISSLQPEDFATYYCQHSWEIPLTFGQGTKVEIK
VH 2: EVQLVESGGGLVKPGGSLRLSCAASGFTFSSYSMNWVRQAPGKGLEWVSSISSSSSYIYYADSVKGRFTISRDNAKNSLYLQMNSLRAEDTAVYYCARGAPMGAAAGWFDPWGQGTLVTVSS
VL 2: DIQMTQSPSSVSASVGDRVTITCRASQGISSWLAWYQQKPGKAPKLLIYAASSLQSGVPSRFSGSGSGTDFTLTISSLQPEDFATYYCQQGVSFPRTFGGGTKVEIK
notes: also called Duobody TriNKET based on h6E7 antibody from Genentech

EC50 [1]: 1.13 nM | FOB (fold over background) [1]: 15 fold | EC50 [2]: 2.79 nM | FOB (fold over background) [2]: 59 fold | EC50 [3]: 4.45 nM | FOB (fold over background) [3]: 369 fold
B2: hcFAE-A49.CLL1-Merus (Duobody TriNKET) (bispecific antibody, V domains shown)
VH 1: EVQLVQSGAEVKKPGASVKVSCKASGYTFTSYYMHWVRQAPGQGLEWMGIINPSGGSTSYAQKFQGRVTMTRDTSTSTVYMELSSLRSEDTAVYYCARGNYGDEFDYWGQGTLVTVSS
VL 1: not shown
VH 2: B1 VH 2
VL 2: B1 VL 2
notes: Duobody format; also called Duobody TriNKET based on CLL1 antibody from Merus

Kd [4]: 3.22 nM | koff [4]: 0.0013 s⁻¹ | kon [4]: 402000 M⁻¹ s⁻¹
B3: F3'-1292 (other)
chain: QLQLQESGPGLVKPSETLSLTCTVSGFSLTNYGLHWIRQPPGKCLEWIGVIWSGGKTDYNPSLKSRVTISKDTSKNQFSLKLSSVQANDTAVYYCAKYDYDDSLDYWGQGTLVTVSSGGGGSGGGGSGGGGSGGGGSDIQMTQSPSSLSASVGDRVTITCHASQNINFWLSWYQQKPGKIPKLLIYEASNLHTGVPSRFSGSGSGTRFTLTISSLQPEDIATYYCQQSHSYPLTFGCGTKLEIKGSDKTHTCPPCPAPELLGGPSVFLFPPKPKDTLMISRTPEVTCVVVDVSHEDPEVKFNWYVDGVEVHNAKTKPREEQYNSTYRVVSVLTVLHQDWLNGKEYKCKVSNKALPAPIEKTISKAKGQPREPRVYTLPPCRDELTKNQVSLTCLVKGFYPSDIAVEWESNGQPENNYKTTPPVLVSDGSFTLYSKLTVDKSRWQQGNVFSCSVMHEALHNHYTQKSLSLSPG
heavy: EVQLVESGGGLVKPGGSLRLSCAASGFTFSSYSMNWVRQAPGKGLEWVSSISSSSSYIYYADSVKGRFTISRDNAKNSLYLQMNSLRAEDTAVYYCARGAPIGAAAGWFDPWGQGTLVTVSSASTKGPSVFPLAPSSKSTSGGTAALGCLVKDYFPEPVTVSWNSGALTSGVHTFPAVLQSSGLYSLSSVVTVPSSSLGTQTYICNVNHKPSNTKVDKKVEPKSCDKTHTCPPCPAPELLGGPSVFLFPPKPKDTLMISRTPEVTCVVVDVSHEDPEVKFNWYVDGVEVHNAKTKPREEQYNSTYRVVSVLTVLHQDWLNGKEYKCKVSNKALPAPIEKTISKAKGQPREPQVCTLPPSRDELTENQVSLTCLVKGFYPSDIAVEWESNGQPENNYKTTPPVLDSDGSFFLYSWLTVDKSRWQQGNVFSCSVMHEALHNHYTQKSLSLSPG
light: DIQMTQSPSSVSASVGDRVTITCRASQGISSWLAWYQQKPGKAPKLLIYAASSLQSGVPSRFSGSGSGTDFTLTISSLQPEDFATYYCQQGVSFPRTFGGGTKVEIKRTVAAPSVFIFPPSDEQLKSGTASVVCLLNNFYPREAKVQWKVDNALQSGNSQESVTEQDSKDSTYSLSSTLTLSKADYEKHKVYACEVTHQGLSSPVTKSFNRGEC
notes: F3' TriNKET, scFv-Fc chain built from the general F3' description; semi-purified

EC50 [1]: 0.63 nM | FOB (fold over background) [1]: 14 fold | EC50 [2]: 1.19 nM | FOB (fold over background) [2]: 59 fold | EC50 [3]: 2.35 nM | FOB (fold over background) [3]: 357 fold
B4: AB0237-Dead-2D (other)
chain: B3 chain with N88A, I180A
heavy: B3 heavy
light: DIQMTQSPSTLSASVGDRVTITCRASNSISSWLAWYQQKPGKAPKLLIYEASSTKSGVPSRFSGSGSGTEFTLTISSLQPDDFATYYCQQYDDLPTFGGGTKVEIKRTVAAPSVFIFPPSDEQLKSGTASVVCLLNNFYPREAKVQWKVDNALQSGNSQESVTEQDSKDSTYSLSSTLTLSKADYEKHKVYACEVTHQGLSSPVTKSFNRGEC
notes: also called AB0237 NKG2D dead arm variant

Kd [5]: 1.58 nM | koff [5]: 0.000901 s⁻¹ | kon [5]: 569000 M⁻¹ s⁻¹
B5: AB0188 (other)
chain: DIKMTQSPSSLSASVGDRVTITCKASQDIYNYLSWFQQKPGKAPKPLIYRANILVSGVPSRFSGSGSGQDYTLTISSLQPEDIATYYCLQFDAFPFTFGCGTKLEIKGGGGSGGGGSGGGGSGGGGSEVQLVESGGGVVQPGGSLRLSCAASGFTFNSFGMHWVRQAPGKCLEWVAFISSGSTSIYYANTVKGRFTISRDNSKNTLYLQMNSLRAEDTAVYYCARDGYPTGGAMDYWGQGTSVTVSSGSDKTHTCPPCPAPELLGGPSVFLFPPKPKDTLMISRTPEVTCVVVDVSHEDPEVKFNWYVDGVEVHNAKTKPREEQYNSTYRVVSVLTVLHQDWLNGKEYKCKVSNKALPAPIEKTISKAKGQPREPRVYTLPPCRDELTKNQVSLTCLVKGFYPSDIAVEWESNGQPENNYKTTPPVLVSDGSFTLYSKLTVDKSRWQQGNVFSCSVMHEALHNHYTQKSLSLSPG
heavy: B3 heavy
light: B3 light
notes: As AB0185

Kd [4]: 2.79 nM | koff [4]: 0.00141 s⁻¹ | kon [4]: 504000 M⁻¹ s⁻¹
B6: F3'-1297 (other)
chain: B3 chain with I180A
heavy: B3 heavy
light: B3 light
notes: As F3'-1292

EC50 [1]: 1.58 nM | FOB (fold over background) [1]: 18 fold | EC50 [2]: 1.5 nM | FOB (fold over background) [2]: 65 fold | EC50 [3]: 2.92 nM | FOB (fold over background) [3]: 368 fold
B7: AB0300 (other, name in EU numbering)
chain: B3 chain with N88A, I180A, L260A, L261A, P355G
heavy: B3 heavy with L239A, L240A, P334G
light: B3 light
notes: Positions are EU numbers, not positions counted on the entries; also called AB0237si

Kd [4]: 5.16 nM | koff [4]: 0.0489 s⁻¹ | kon [4]: 9.48e+06 M⁻¹ s⁻¹
B8: F3'-1306 (other)
chain: DIQMTQSPSSLSASVGDRVTITCHASQNINFWLSWYQQKPGKAPKLLIYEASNLHTGVPSRFSGSGSGTRFTLTISSLQPEDIATYYCQQSHSYPLTFGCGTKLEIKGGGGSGGGGSGGGGSGGGGSQLQLQESGPGLVKPSETLSLTCTVSGFSLTNYGLHWIRQPPGKCLEWIGVIWSGGKTDYNPSLKSRVTISKDTSKNQFSLKLSSVQANDTAVYYCAKYDYDDSLDYWGQGTLVTVSSGSDKTHTCPPCPAPELLGGPSVFLFPPKPKDTLMISRTPEVTCVVVDVSHEDPEVKFNWYVDGVEVHNAKTKPREEQYNSTYRVVSVLTVLHQDWLNGKEYKCKVSNKALPAPIEKTISKAKGQPREPRVYTLPPCRDELTKNQVSLTCLVKGFYPSDIAVEWESNGQPENNYKTTPPVLVSDGSFTLYSKLTVDKSRWQQGNVFSCSVMHEALHNHYTQKSLSLSPG
heavy: B3 heavy
light: B3 light
notes: As F3'-1292

Kd [4]: 1.34 nM | koff [4]: 0.00117 s⁻¹ | kon [4]: 874000 M⁻¹ s⁻¹
B9: F3'-1296 (other)
chain: B3 chain with K97R
heavy: B3 heavy
light: B3 light
notes: As F3'-1292
